# This sample holds only a part of the variants without activity.
# B1: TPR 5TU (parent)
# chain: GGAUCUUCUCGAUCUAACAAAAAAGACAAAUCUGCCACAAAGCUUGAGAGCAUCUUCGGAUGCAGAGGCGGCAGCCUUCGGUGGCGCGAUAGCGCCAACGUUCUCAACUAUGACACGCAAAACGCGUGCUCCGUUGAAUGGAGUUUAUCAUG
# Variants of: B1
# Assay: polymerase ribozyme fitness, log enrichment relative to wild type (log ratio); higher = more active; in vitro selection for triplet polymerase activity
# Method in brief: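 Mutant libraries of each subunit of a heterodimeric triplet polymerase ribozyme were built by PCR and transcribed. Each library went through one round of in vitro selection in triplicate: annealing with biotinylated primer, partner subunit and triplets, frozen incubation at −7 °C, gel excision of extended constructs, streptavidin-bead capture and RT-PCR. Input and output libraries were Illumina-sequenced; only genotypes with ≥10 input reads and ≥1 read per output were kept. Fitness is log2(genotype enrichment/wild-type enrichment), using inverse-variance-weighted replicate averages.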
row,Variant,polymerase ribozyme fitness (log ratio)
1,U13A C18U U55A A119G,-1.83
2,U13G G136A U144C,-2.04
3,U13A A29U U44A C72G C96U A97U,≤ -4.2
4,A12U U144G,0.918
5,U13A C27A C54A U56A G65C G92C A97G U101G G140U,≤ -4.2
6,U13A C93A,-3.28
7,U13A G48U U56A G84A,-1.28
8,A12U G46A C75U C87A C99U G117A,≤ -4.2
9,U13G U61A A89U C96U,-3.58
10,U13C C38G U53A U82G G92A C105G C114U G128C U151C,≤ -4.2
11,U13A A52G G68C G80A U82G C95G C105U C114A U145G,≤ -4.2
12,U13G A21C G48U,-1.33
13,U13C C93A,-2.64
14,U13C C51G C54G C75U G83U,≤ -4.2
15,A12U C54U U134A U145G,-3.56
16,U13G A29U C93U C129G,≤ -4.2
17,U13C A39C U56A C95U G124A,-3.63
18,C14A A52G C85U A113C,-4.15
19,U13C U78G C85A C116U,≤ -4.2
20,U13C C69A C87G A97U A147U,≤ -4.2
21,A12U U31G A40C A49C A60G C93U,≤ -4.2

row,Variant,polymerase ribozyme fitness (log ratio)
1,A12U G80U G84C A97G U134C,≤ -4.2
2,C14A A16C G46A G67C C85A C95A,≤ -4.2
3,U13C A22U A24U U53A A98U,-1.6
4,U13A U135A,-0.229
5,U13G A41G C54G G81A C96G C118U,≤ -4.2
6,A12U C105G,-2.43
7,U13C A24C U45G G84U U135C,≤ -4.2
8,C14A A21U G59U G133C,-3.06
9,U13C A40C G48C G50C G83U,≤ -4.2
10,U13G A21U C32G A73U U78A C87A C118A,≤ -4.2
11,A12U U82C G86C,≤ -4.2
12,U13G A19U A49U C54G A89G C93U U127C,≤ -4.2
13,C14A A41U C76G C87A G92C U144G,≤ -4.2
14,A12U G46C C69U,-3.08
15,U13A A52U A73G C85A U134G,≤ -4.2
16,U13G U55A G94A G100A G140U,-4.11
17,U13G A19G G25C C79A C131G U145G,≤ -4.2
18,A12U G71A A107C,≤ -4.2
19,U13G C54G,-3.62
20,U13G G48C G81A C96A,≤ -4.2
21,U13A A52G U56A C75U U78A C87U C93A G136C C149A,≤ -4.2

row,Variant,polymerase ribozyme fitness (log ratio)
1,U13C U90G C116A,-4.13
2,U13A A26U C76U U146A,-3.35
3,U13G G68C G84A,≤ -4.2
4,C14A A37U C75G G94A A113G C114G C149A,≤ -4.2
5,A12U C51U,-2.53
6,A12U G25C A47G U56A C93G C108G,≤ -4.2
7,A12U U55A C87U A119U U127C,-3.82
8,C14A A39U A49C C57A C79G G86U,≤ -4.2
9,U13C C93U U134A,-3.08
10,U13C C93G C99A U127C,≤ -4.2
11,U13G A106G,-1.5
12,A12U C96U U144G,0.0703
13,U13C G94A G141U,0.369
14,U13C A19C A89U C95U U146G A150U,-2.94
15,U13C C14G C43G A91G A106U U109G A138G,-4.06
16,U13C A21C,0.934
17,C14A A40C G92C G143A,≤ -4.2
18,A12U G58U G83A C93A,≤ -4.2
19,A12U G94A,-1.47
20,C14A A16U G83A C93G C95U A98U C108G,≤ -4.2
21,C14A A17G G74U C85U C99G U101A U148A,≤ -4.2

row,Variant,polymerase ribozyme fitness (log ratio)
1,U13A C36A G50A C79U C96A,≤ -4.2
2,A12U G143U,-3.14
3,U13C U53G C87A A120U A142U U146A,≤ -4.2
4,U13G U56A C76G A91U C93U,≤ -4.2
5,A12U G92U,-1.64
6,A12U G92A,-1.81
7,U13A C38U A60C G83C,≤ -4.2
8,U13A C85U A107U C125A G126C,≤ -4.2
9,A12U C85A C96A,-2.97
10,U13G A21U A22C U82G G92U A98C C116U,-1.59
11,A12U C85A U139G,-0.992
12,U13C G83C C96U C114U,-4.13
13,U13C C51A G83C A89G C125U,≤ -4.2
14,A12U U61G C93U G94A U144G,-2.83
15,A12U U55G A60U G83C A137U G141U,≤ -4.2
16,A12U U102G,-3.28
17,A12U C85G,-1.91
18,A12U C85U,-0.742
19,A12U C85A,-1.85
20,A12U C85G C123U U127A,≤ -4.2
